In patent US20240174992A1 (PROMEGA, published 2024) one finds binding result and Kd data, which are given here for one molecule.

In test [1] the target is HaloTag[22-297](Q145H+P154R)-6×His. Nature of the test: purified system, 80 nM large fragment, peptide titration, TMR ligand.
For test [2], the target named is T1, HaloTag[22-297](Q145H+P154R).
T1 construct: also called LgHT variant
Nature of the test: apparent affinity from peptide titration of the large fragment in E. coli lysate, JF646 fluorescence complementation; signal approaches saturation.

The next test deals with T2, HaloTag[22-297](M2F).
T2 construct: also called LgHT (M2F variant); Large HaloTag
Nature of the test: apparent affinity from peptide titration (up to 1 mM) of the large fragment in E. coli lysate, JF646 fluorescence complementation; signal did not saturate.

T1 sequence (chain, as listed by the source Q145H P154R Q145H P154R): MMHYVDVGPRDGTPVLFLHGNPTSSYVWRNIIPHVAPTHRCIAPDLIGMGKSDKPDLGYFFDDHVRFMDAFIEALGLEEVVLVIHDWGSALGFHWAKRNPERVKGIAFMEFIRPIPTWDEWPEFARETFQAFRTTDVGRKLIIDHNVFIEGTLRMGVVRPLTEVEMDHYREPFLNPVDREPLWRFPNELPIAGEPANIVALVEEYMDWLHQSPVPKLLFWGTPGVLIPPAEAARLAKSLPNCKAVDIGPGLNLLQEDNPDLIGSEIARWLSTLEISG
Chain of HaloTag[22-297](Q145H+P154R)-6×His (chain, as listed by the source Q145H P154R Q145H P154R): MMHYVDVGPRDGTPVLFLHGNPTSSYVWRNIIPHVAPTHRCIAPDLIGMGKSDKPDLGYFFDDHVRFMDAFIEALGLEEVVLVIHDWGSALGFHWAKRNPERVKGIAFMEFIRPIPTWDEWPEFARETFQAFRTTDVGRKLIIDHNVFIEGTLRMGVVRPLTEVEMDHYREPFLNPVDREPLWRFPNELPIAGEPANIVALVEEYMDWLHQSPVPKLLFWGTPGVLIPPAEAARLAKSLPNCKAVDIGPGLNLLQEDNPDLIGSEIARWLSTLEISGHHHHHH
T2 sequence (chain, as listed by the source): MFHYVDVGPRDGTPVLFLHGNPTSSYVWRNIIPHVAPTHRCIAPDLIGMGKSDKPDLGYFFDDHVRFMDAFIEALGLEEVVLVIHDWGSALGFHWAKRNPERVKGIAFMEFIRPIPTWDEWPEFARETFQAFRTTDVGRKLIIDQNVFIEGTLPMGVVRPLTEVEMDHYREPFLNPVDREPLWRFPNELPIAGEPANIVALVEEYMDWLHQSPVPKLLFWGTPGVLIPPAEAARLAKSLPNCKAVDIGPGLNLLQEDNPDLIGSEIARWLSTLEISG

As to EIGTGFPFDPHYVEVLG (also called HT(3-19); SmHT) [synthetic HaloTag[3-19] peptide], in test [1], the binding result is recorded as “binds”. Besides, the values for the Kd (in test [2]; with HaloTag[22-297](M2F)) were about 1000 nM and over 100000 nM, respectively.
